The experiment has as its target IMI4C4a antibody (monoclonal antibody produced from Mouse-Mouse hybridoma IMI4C4a). The experiment in a line: competitive inhibition ELISA, peptide preincubated with IMI4C4a (333 pM), immobilized ICD4. For orientation: An ELISA detects its analyte on a solid surface through an enzyme-linked reagent.

Sequence of IMI4C4a antibody (monoclonal antibody produced from Mouse-Mouse hybridoma IMI4C4a) (VH, as listed by the source, chain 1 of 2): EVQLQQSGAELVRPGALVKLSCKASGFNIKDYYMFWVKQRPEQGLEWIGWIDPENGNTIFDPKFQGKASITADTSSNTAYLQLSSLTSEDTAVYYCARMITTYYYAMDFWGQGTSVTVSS
Sequence of IMI4C4a antibody (monoclonal antibody produced from Mouse-Mouse hybridoma IMI4C4a) (V domain, as listed by the source, chain 2 of 2): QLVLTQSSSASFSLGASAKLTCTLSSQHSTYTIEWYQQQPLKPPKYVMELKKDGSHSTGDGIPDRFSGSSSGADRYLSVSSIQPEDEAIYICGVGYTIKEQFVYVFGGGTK

B1: ICD4_242-258 (chemically synthesized peptide) (peptide)
peptide: TQKAGLPSKNLTVSQNQ
For B1, the “molar ratio to the antibody at which an inhibitory effect started” value is 50 fold molar ratio relative to the antibody concentration and the “molar ratio to the antibody giving significant inhibition” value is ≥ 500 fold molar ratio relative to the antibody concentration.

B2: ICD4_227-242 (chemically synthesized peptide) (peptide)
peptide: THCHETEESTIKDSTT
In the case of B2, the “molar ratio to the antibody without inhibition” value was > 10000 fold molar ratio relative to the antibody concentration.

B3: ICD4_235-250 (chemically synthesized peptide) (peptide)
peptide: STIKDSTTQKAGLPSK
Take B3: the “molar ratio to the antibody without inhibition” value is > 10000 fold molar ratio relative to the antibody concentration.

These data come from patent US20170313770A1 (ORDER MADE MEDICAL RESEARCH, published 2017).
